Source: IntAct's records for PubMed 10613896

B1: Arf-GAP domain and FG repeat-containing protein 1 (Homo sapiens), P52594 (parent)
chain: MAASAKRKQEEKHLKMLRDMTGLPHNRKCFDCDQRGPTYVNMTVGSFVCTSCSGSLRGLNPPHRVKSISMTTFTQQEIEFLQKHGNEVCKQIWLGLFDDRSSAIPDFRDPQKVKEFLQEKYEKKRWYVPPEQAKVVASVHASISGSSASSTSSTPEVKPLKSLLGDSAPTLHLNKGTPSQSPVVGRSQGQQQEKKQFDLLSDLGSDIFAAPAPQSTATANFANFAHFNSHAAQNSANADFANFDAFGQSSGSSNFGGFPTASHSPFQPQTTGGSAASVNANFAHFDNFPKSSSADFGTFNTSQSHQTASAVSKVSTNKAGLQTADKYAALANLDNIFSAGQGGDQGSGFGTTGKAPVGSVVSVPSQSSASSDKYAALAELDSVFSSAATSSNAYTSTSNASSNVFGTVPVVASAQTQPASSSVPAPFGATPSTNPFVAAAGPSVASSTNPFQTNARGATAATFGTASMSMPTGFGTPAPYSLPTSFSGSFQQPAFPAQAAFPQQTAFSQQPNGAGFAAFGQTKPVVTPFGQVAAAGVSSNPFMTGAPTGQFPTGSSSTNPFL
partner: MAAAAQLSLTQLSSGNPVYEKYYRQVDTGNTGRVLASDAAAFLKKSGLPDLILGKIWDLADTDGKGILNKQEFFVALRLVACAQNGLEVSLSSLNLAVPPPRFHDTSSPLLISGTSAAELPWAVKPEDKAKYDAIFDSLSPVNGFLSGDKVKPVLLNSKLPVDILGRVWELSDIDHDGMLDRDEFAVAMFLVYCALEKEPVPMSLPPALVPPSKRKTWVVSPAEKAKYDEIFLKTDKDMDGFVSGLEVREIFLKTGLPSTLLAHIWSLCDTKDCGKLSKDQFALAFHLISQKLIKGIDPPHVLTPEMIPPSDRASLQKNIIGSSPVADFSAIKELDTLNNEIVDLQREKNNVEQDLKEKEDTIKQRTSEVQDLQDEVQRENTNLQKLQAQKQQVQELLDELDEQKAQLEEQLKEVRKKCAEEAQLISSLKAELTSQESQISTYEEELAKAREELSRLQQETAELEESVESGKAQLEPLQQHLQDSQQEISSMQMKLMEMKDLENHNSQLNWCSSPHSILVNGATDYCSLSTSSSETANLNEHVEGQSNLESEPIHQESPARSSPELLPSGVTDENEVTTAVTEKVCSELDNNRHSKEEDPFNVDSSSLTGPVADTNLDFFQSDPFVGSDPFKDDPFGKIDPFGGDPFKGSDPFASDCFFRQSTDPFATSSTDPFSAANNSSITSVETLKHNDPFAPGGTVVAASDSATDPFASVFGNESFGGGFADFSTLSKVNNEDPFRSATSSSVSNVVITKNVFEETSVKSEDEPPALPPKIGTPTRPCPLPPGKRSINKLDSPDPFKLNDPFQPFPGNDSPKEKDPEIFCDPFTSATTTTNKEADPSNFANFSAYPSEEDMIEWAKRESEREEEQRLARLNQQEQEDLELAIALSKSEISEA

Variants of: B1
Conditions: with eps15_human EPS15, P42566
For MAASAKRKQEEKHLKMLRDMTGLPHNRKCFDCDQRGPTYVNMTVGSFVCTSCSGSLRGLNPPHRVKSISMTTFTQQEIEFLQKHGNEVCKQIWLGLFDDRSSAIPDFRDPQKVKEFLQEKYEKKRWYVPPEQAKVVASVHASISGSSASSTSSTPEVKPLKSLLGDSAPTLHLNKGTPSQSPVVGRSQGQQQEKKQFDLLSDLGSDIFAAPAPQSTATANFANFAHFNSHAAQNSANADFANFDAFGQSSGSSNFGGFPTASHSPFQPQTTGGSAASVNANFAHFDNFPKSSSADFGTFNTSQSHQTASAVSKVSTNKAGLQTADKYAALANLDNIFSAGQGGDQGSGFGTTGKAPVGSVVSVPSQSSASSDKYAALAELDSVFSSAATSSNAYTSTSNASSNVFGTVPVVASAQTQPASSSVPAPFGATPSTNPVVAAAGPSVASSTNPVQTNARGATAATFGTASMSMPTGFGTPAPYSLPTSFSGSFQQPAFPAQAAFPQQTAFSQQPNGAGFAAFGQTKPVVTPFGQVAAAGVSSNPVMTGAPTGQFPTGSSSTNPVL [F436V;F451V;F542V;F561V], the “effect of a mutation on the interaction” value was “disrupting interaction”.
